Consider 50 sequences from the domain aggregation screens of Martell et al. (2025).

A short description of this data set: soluble fraction after stress (log2 fold change); higher = more stays soluble; pooled small domains, quantitative proteomics. The following applies: stress: 75 degC.
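Further: 20 min heating vs room temperature control held 20 min.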

Regarding “HMFPNLTNEEQQVMKVLAKTNDLQINMLSVQSNLPIARLTALLFSMEMKGVVKTLAGGVYHLL”, the “soluble fraction (log2)” value is -4.27.

As to “HMFPNSFSEREKEVVDLLLQAKSNKQIAFSLGITNRTVEYHLGNIFAKLGVSSRSEAILTITNYKNQ”, the “soluble fraction (log2)” value was -2.35.

For “HMFPQVEVQLIYSYKSDRILNKMLKEFNVVILNQVFKDDILTSFHMNYSLVNQLITKIKSYPDISYKIIN”, the “soluble fraction (log2)” value was -1.82.

For “HMFPTLNEDEQTIVSALQKINDQPINTLSIHTALPIPRLTSLLFQLEIKGVIKQLAGGTYHVL”, the “soluble fraction (log2)” value was -2.84.

For “HMFQLSNEAKQQVLGELKRYESKQSAVLPALYIGQKDNKGHITPEVIRELSKVMDIPESQINEVFTFYTM”, the “soluble fraction (log2)” value was -0.287.

As for “HMFQRLPFSFANRYKMVLEYQHPERPPVLYYVEPLKAAAILEVSRVIKSGFTPQAIVSDEFEKKLTEAYQR”, the “soluble fraction (log2)” value is -2.76.

For the sequence “HMFRMTPQRMAILAEVQNAERHLTAAEIYERVRRKYPTIAYGTVYRTLHLLAKHGLIQEFPFGDNASLFDR”, the “soluble fraction (log2)” value was -0.159.

For the sequence “HMFRPRIEPGAKGSYVLEVQKRLAKLGYEHAGFDGVYGPGTERAIMQLQRDKGLPVTGIVDMRTYEALGLF”, the “soluble fraction (log2)” value is -0.99.

Turning to “HMFRSTLEELKHQISGFLKANQSQEFTAQNLADGLRMTSIAEYKRVVNAMDALVRDGELTFDAGKYQYNPN”, the “soluble fraction (log2)” value was -0.234.

“HMFSMKDFGQRLRQLRKERGLTQGDLARLAKIDIMQVSRYERGLGLPSLETAIALARVLETSTDLLFLG”: the “soluble fraction (log2)” value was -3.52.

On to “HMFSPSDEDLELAHRQIRAFEEVEANGKSIAVVDGRIVESLHIVTARDTLEKAKAITALAEEM”, for which the “soluble fraction (log2)” value worked out at 0.000997.

Regarding “HMFSVVDKITLQEELKKLSKKEQLLIQLRYYDELNQEEIAKIFHVSQVQISRMEKKIIEKLKKQF”, the “soluble fraction (log2)” value is -3.44.

Turning to “HMFTDEELEHIRSALIQAGIRLSKELGLQKMSVEKLTAAVGIAKGSFYMFFGSKEDFILEVAEYTGAQ”, the “soluble fraction (log2)” value was -0.976.

Turning to “HMFTEEEMTKLRHELILAGIRLSRELGLQRMSVEKITSAVGIAKGSFYIFFDSKEDFILEIADHANRE”, the “soluble fraction (log2)” value is -1.1.

With “HMFTEEQMDWLRLIKDHIVASLSILPEDLELTPFDRKGGLLGFYDAFGDEYEKILQEMNEELVA”, the “soluble fraction (log2)” value was -0.567.

For the sequence “HMFTEIMAERNALIQAIQQNLPPQHIQSILSKKNKFRLEDLTNEELRDVWQWILNQRQAQQHQQQ”, the “soluble fraction (log2)” value is -0.0958.

As for “HMFTGELESRVFELNYVDGLVASAALAGVLTDKGSATPIASRAGGENDMLLVVDRIASYSQIEKIITQLD”, the “soluble fraction (log2)” value was found to be 0.0191.

On to “HMFTKSNLEKLSNSELILKAIDSGNYSKIEFGGSEALNPDVPSYKKDLKNREELIEILSEMGM”, for which the “soluble fraction (log2)” value was found to be 0.148.

Turning to “HMFVNADEIAKGLSPFNPSSVAIEAGRLMLKRIGELLSAGVSFSVETTLSTRSYINLIQQAQNQGYSVSL”, the “soluble fraction (log2)” value was 0.822.

As for “HMFVVVPDLIGKTINQFEEDLSELNLKYVVSDSGNFNPEFKINAVLDQSPKANSKVKDGRKIYLTLNAS”, the “soluble fraction (log2)” value was -0.434.

On to “HMFWRKIDFYGLNLSTYRNIINIGSDYNYIYLDLGNIYKILNPITGKIIEEQDLVMNIDNINWSS”, for which the “soluble fraction (log2)” value amounted to 0.283.

As to “HMFYNDLINFDVFRDSRKIGKIENINSRLPQPVFEIMYDSRIVLIPIHEDFIRKIDKVNNIIYLDIPDGLL”, the “soluble fraction (log2)” value was -2.99.

Regarding “HMGAAFITSSKDNAINIRQSANTDSKVIETVTNGQILESNEKSGEWHKVTYYDNDIKKSFTGYVHEGQLK”, the “soluble fraction (log2)” value amounted to 0.0505.

“HMGAAIEYGDRGNTVLQAQRLLIARGYMAGSADGIYGRQMEQAVKRFQKEQGLPESGVVDRRTLQVLIRSR”: the “soluble fraction (log2)” value is -1.63.

Take “HMGAARRFEMSEGGSQKFWEVAVEGPALTVRFGKLGTAGTTQTKTLASAEAAAKEADKLVREKTKKGYAP”: the “soluble fraction (log2)” value is -0.199.

Consider “HMGAATQADIARVQELLNRLGYDAGSPDGLMGPRTRDAILEYQLTEGLETTGTVTRETLASLEARL”, for which the “soluble fraction (log2)” value came out at 0.0156.

Consider “HMGAGFREAIPPALDGERIDRVVSLLAYVSRNRAAGALAAGSVSVDGEVVFQRSRRVREGEELVVTGFERE”, for which the “soluble fraction (log2)” value was -1.01.

“HMGAITGLQSRVAFLKGQGTITDAEAKTAMAFLPDPTDSKEVKIAKIGQAREYIMSLIENRA”: the “soluble fraction (log2)” value is -0.267.

Turning to “HMGAIVTGTVVEIRSDVVIVNAGLKSEGVVPIEQFRNEAGELEVSVGDEVKVALDALEDGFGETRLS”, the “soluble fraction (log2)” value was -0.347.

For “HMGAIVTVPDLAGRPQPGAEAELRRSGLVPKVRTSYSLTGTRGTVISQTPPAGSRVREGAEVEVVVSRGLN”, the “soluble fraction (log2)” value stood at 0.00469.

As for “HMGAKLTTAQGGTLKVLVKGKKTHTPTIELRDKDPDFPNAKVVQPDINKGNKQIAHGINGVL”, the “soluble fraction (log2)” value came out at 0.686.

“HMGALAITPDFVGQTREEAERFLRDLDLSFDIGGKGDRILRQEPVAGQRMNLDQPMKLWVGSMNA”: the “soluble fraction (log2)” value stood at 0.245.

“HMGANAVAAFTARVRTGPSTGYPVRISVPQGRQVRVISGPYGGWYRVSYQGLTGYTYGGLLRQG”: the “soluble fraction (log2)” value was -0.673.

Take “HMGAPAISYSKFLEQVDRKNVASVTIYKDGRIDGVMTSGSRFATESPSDPGLVGDLLKAGVEIRAKPP”: the “soluble fraction (log2)” value is 0.177.

Regarding “HMGAPVIYELTAESAAGQRIDKYLSGQLADLSRSYLQKLLKDGGVEVNKKPVKSNYKLSEGDQIRLEVPEA”, the “soluble fraction (log2)” value is 0.0457.

“HMGAQINSPISGTILKYLVKNGDKITKDQPLVNIESMKMENTIKSDKEGIVNNINFKIGDSVNTADTLLTL”: the “soluble fraction (log2)” value worked out at 0.0698.

On to “HMGAQKITIPDFSNQEATQVYAELKNMGLEYTESRMNHPSIASGYVIKTEPTKGSEVKAGTTVTVYVSLG”, for which the “soluble fraction (log2)” value is -0.112.

Consider “HMGARHPLPYPFARAHGLLLEADGERSTLWASTNVSPAALSEVMRKYAVDVIEEEPPETLSQRIAAAYAA”, for which the “soluble fraction (log2)” value is -0.155.

“HMGASFITSSKDNAINIRESATTDSKVIETIKNGEILESTEKSGDWHKVTYYNSEIKKSFTGYIHNSQLK”: the “soluble fraction (log2)” value amounted to 0.426.

For “HMGASLVIVPGAGFLRVSASSQTRLDVYSITGMRVRSVDFEPGTTEIELPAGFYIAGGRKFFV”, the “soluble fraction (log2)” value is -2.42.

In the case of “HMGAYITYEVKPGDTLWDIANKFPGVSADNIKTWNKVDELIKAGERLKINTQTITDYSPDKYPS”, the “soluble fraction (log2)” value is -0.242.

Consider “HMGDADDLSRELLQQGLSLKEAVADFERRYLQQAMQRHSSIASVSEALDVHFSTLWRKLVKYNLV”, for which the “soluble fraction (log2)” value is -0.104.

For the sequence “HMGDADDLTRIKGIGPKLSKTLNELGIYHFRQIAGWQSDEADWVDDYLSFKGRVMREQWIEQAQKFAS”, the “soluble fraction (log2)” value was -0.475.

On to “HMGDAIPVPDVSGFSEDQAMNNLRKVGLRPKATYVADDNTAKGYVTGTSPAKNIEVAPDSEVIVYVSSGP”, for which the “soluble fraction (log2)” value was determined as 0.697.

On to “HMGDAPLITVDKRTIKVNGAKAQIQVYDTTGRLVKNVSPAGKLTLIEMAKPGIFIVHTQSMSFKVVL”, for which the “soluble fraction (log2)” value was -0.351.

For “HMGDAVYSKVKDLVNTYNALAKQTGKSDLVSISQSRTWMVNDTKAHEVQWNKIGITIEDDQTLTI”, the “soluble fraction (log2)” value came to 0.0968.

For “HMGDLDLVTFGQRLRHLRRSRNMTLSELGERVGRAPSQLSLLENGKREPKLSLLTALAKALDVSVEEL”, the “soluble fraction (log2)” value was -1.05.

For the sequence “HMGDLVKGKVVGYDPDNVIVDIGAKTNALVPNREAVVEAGDDIKETLKKGNEYEFLIIRDEDEEGEFL”, the “soluble fraction (log2)” value was found to be 0.24.

“HMGDPEYFKKQLGDFMDRFNITSEDIKNLSIAGAINRMMNNAEGEDKTVLSKLLETVNKSGVGNLPAKTI”: the “soluble fraction (log2)” value is -0.0106.

As to “HMGDPVRVDKFLHDMNVGTRSQIRKLIKEKAVFVNDVVAKSGRVKVDPVVDQVRLGEQVITYQ”, the “soluble fraction (log2)” value was -0.245.
